Source: patent US20100280227A1 (Genentech, published 2010)
Like-named read-outs stand apart in the source and are kept apart here.

Columns and labels:
V3-1 Fab [1] = molecular target: T1, V3-1 Fab; experiment: phage competition ELISA, ECD in solution
T1 construct: soluble Fab in SPR
Target sequence in this assay (VH, as listed by the source, chain 1 of 2): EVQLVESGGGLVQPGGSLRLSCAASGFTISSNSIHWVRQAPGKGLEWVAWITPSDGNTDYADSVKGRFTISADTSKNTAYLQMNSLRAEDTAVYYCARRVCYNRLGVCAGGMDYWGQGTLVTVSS
Target sequence in this assay (VL, as listed by the source, chain 2 of 2): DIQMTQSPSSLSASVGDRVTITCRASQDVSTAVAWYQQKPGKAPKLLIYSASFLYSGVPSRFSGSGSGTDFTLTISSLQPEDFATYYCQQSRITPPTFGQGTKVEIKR
Experimental: (§1) Third, a competition ELISA was performed. […] The wells were blocked by adding 65 ul 1% BSA for 30 minutes followed by 40 ul 1% Tween20 for another 30 minutes. The wells were washed with PBS—0.05% Tween20 5 times. […] The wells of the second plate were washed with PBS—0.5% Tween20 at least three times. 75 ul of HRP-conjugated anti-M13 antibody (1/5000 dilution with ELISA buffer) per well was added and incubated at room temperature for 30 minutes. The wells were washed again with PBS—0.05% Tween20 at least five times.

V3-11 Fab = molecular target: T2, V3-11 Fab; experiment: phage competition ELISA, ECD in solution
T2 construct: soluble Fab in SPR
Experimental: as §1

V3-12 Fab = molecular target: T3, V3-12 Fab; experiment: phage competition ELISA, ECD in solution
T3 construct: soluble Fab in SPR
T3 sequence (VH, as listed by the source, chain 1 of 2): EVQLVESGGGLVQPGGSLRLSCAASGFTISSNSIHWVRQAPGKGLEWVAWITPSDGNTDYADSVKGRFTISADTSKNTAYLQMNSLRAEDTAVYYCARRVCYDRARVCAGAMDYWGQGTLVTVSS
T3 sequence (VL, as listed by the source, chain 2 of 2): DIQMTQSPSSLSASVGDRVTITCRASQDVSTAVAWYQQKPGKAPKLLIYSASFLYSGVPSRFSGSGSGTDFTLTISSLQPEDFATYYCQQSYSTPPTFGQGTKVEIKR
Experimental: as §1

V3-13 Fab = molecular target: T4, V3-13 Fab; experiment: phage competition ELISA, ECD in solution
T4 construct: soluble Fab in SPR
Experimental: as §1

V3-1 Fab [2] = molecular target: T1, V3-1 Fab; experiment: phage competition ELISA, ECD in solution; remark: listed apart in the source
Experimental: (§2) Second, the concentration of purified phage that would be optimal for use in the following competition ELISA assay was determined (i.e., approximately 90% of maximal binding capacity on the coated plate). […] The wells were blocked by adding 65 ul 1% BSA for 30 minutes followed by 40 ul 1% Tween20 for another 30 minutes. Next, the wells were washed five times with PBS—0.05% Tween20. F(ab)′2 phage were diluted to 0.1 O.D./ml in ELISA buffer (PBS—0.5% BSA and 0.05% Tween20) and, then, were added to the wells for 15 minutes at room temperature. The wells were then washed with PBS—0.05% Tween20 at least three times. 75 ul of HRP-conjugated anti-M13 antibody (Amersham, 1/5000 dilution with ELISA buffer) per well was added and incubated at room temperature for 30 minutes. The wells were washed again with PBS—0.05% Tween20 at least five times. Next, 100 ul/well of a 1:1 ratio of 3,3′,5,5′-tetramethylbenzidine (TMB) Peroxidase substrate and Peroxidase Solution B (H2O2) ((Kirkegaard-Perry Laboratories (Gaithersburg, Md.)) was added to the well and incubated for 5 minutes at room temperature. The optical density of the color in each well was determined using a standard ELISA plate reader at 450 nm. The dilutions of phage were plotted against the O.D. readings.
(§3) Third, a competition ELISA was performed. […]

V3-46s Fab [3] = molecular target: T5, V3-46s Fab; experiment: phage competition ELISA, ECD in solution
T5 construct: N31S mutant of V3-46; also called V46s; N31S
Target sequence in this assay (VH, as listed by the source, chain 1 of 2): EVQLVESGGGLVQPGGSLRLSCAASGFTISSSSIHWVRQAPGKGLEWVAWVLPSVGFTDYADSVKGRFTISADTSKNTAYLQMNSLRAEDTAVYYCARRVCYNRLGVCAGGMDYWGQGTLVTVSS
Target sequence in this assay (VL, as listed by the source, chain 2 of 2): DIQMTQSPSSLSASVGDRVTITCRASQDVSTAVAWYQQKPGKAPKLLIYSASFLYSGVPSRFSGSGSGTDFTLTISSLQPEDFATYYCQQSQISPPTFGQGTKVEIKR
Experimental: as §2, §3

V3-46s Fab [4] = molecular target: T5, V3-46s Fab; experiment: phage competition ELISA, ECD in solution (printed Phage50)
V3-46s-9 Fab = molecular target: T6, V3-46s-9 Fab; experiment: as above
T6 construct: soluble Fab in SPR; also called V46s-9
T6 sequence (VL, as listed by the source, chain 2 of 2): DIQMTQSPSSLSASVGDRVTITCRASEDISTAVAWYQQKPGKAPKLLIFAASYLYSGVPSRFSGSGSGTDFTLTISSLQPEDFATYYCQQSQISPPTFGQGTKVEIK

V3-46s-42 Fab = molecular target: T7, V3-46s-42 Fab; experiment: as above
T7 construct: soluble Fab in SPR; also called V46s-42
T7 sequence (VL, as listed by the source, chain 2 of 2): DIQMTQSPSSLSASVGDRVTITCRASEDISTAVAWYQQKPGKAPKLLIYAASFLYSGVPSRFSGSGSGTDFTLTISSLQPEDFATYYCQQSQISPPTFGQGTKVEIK

V3-46 phage clone = molecular target: T8, V3-46 phage clone; experiment: phage competition ELISA, ECD in solution (printed Phage ID50)
T8 construct: also called V3-46 WT; clone 46
Experimental: as §1

V3-46 N31A phage clone = molecular target: T9, V3-46 N31A phage clone; experiment: as above
T9 construct: also called V3-46a
Experimental: as §1

V3-46 N31Q phage clone = molecular target: T10, V3-46 N31Q phage clone; experiment: as above
T10 construct: also called V3-46q
T10 sequence (VH, as listed by the source, chain 1 of 2): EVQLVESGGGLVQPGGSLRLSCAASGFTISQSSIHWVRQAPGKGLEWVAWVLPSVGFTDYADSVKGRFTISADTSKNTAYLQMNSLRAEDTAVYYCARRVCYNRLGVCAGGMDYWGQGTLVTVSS
Experimental: as §1

V3-46s Fab [5] = molecular target: T5, V3-46s Fab; experiment: as above
Experimental: as §1

T2 sequence (VH, as listed by the source, chain 1 of 2): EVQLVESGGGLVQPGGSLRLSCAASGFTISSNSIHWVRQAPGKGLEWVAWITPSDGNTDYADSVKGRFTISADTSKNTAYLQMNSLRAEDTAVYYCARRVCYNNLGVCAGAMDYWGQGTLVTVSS
T2 sequence (VL, as listed by the source, chain 2 of 2): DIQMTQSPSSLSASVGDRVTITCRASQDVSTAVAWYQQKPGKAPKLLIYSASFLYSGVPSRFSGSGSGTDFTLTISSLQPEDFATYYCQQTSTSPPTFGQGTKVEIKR

IC50 (V3-1 Fab [1]): 5.4 nM | IC50 (V3-11 Fab): 8.4 nM | IC50 (V3-12 Fab): 57 nM | IC50 (V3-13 Fab): 33 nM | IC50 (V3-1 Fab [2]): 5.4 nM | IC50 (V3-46s Fab [3]): 1.53 nM | IC50 (V3-46s Fab [4]): 1.7 nM | IC50 (V3-46s-9 Fab): 0.18 nM | IC50 (V3-46s-42 Fab): 0.23 nM | IC50 (V3-46 phage clone): 1.42 nM | IC50 (V3-46 N31A phage clone): 2.89 nM | IC50 (V3-46 N31Q phage clone): 2.44 nM | IC50 (V3-46s Fab [5]): 1.53 nM
B1: mouse BR3 extracellular domain (receptor)
chain: MGARRLRVRSQRSRDSSVPTQCNQTECFDPLVRNCVSCELFHTPDTGHTSSLEPGTALQPQEGS
notes: also called mBR3-ECD; mBR-ECD
